Experiments:
[1] = system: full thickness skin wound on the back; assay: Acute wound model, remaining wound area; format: in vivo, C57BL/6 mice; conditions: ± SD
Protocol: 6-8 weeks old male C57BL/6 mice were supplied by Changzhou Cvens Experimental Animal Co. Ltd (Changzhou, Jiangsu Province, China). Prior to any experiments being conducted, mice were housed under standardized conditions (at a constant temperature of 22±2° C., with alternating 12 hour periods of light and darkness), and were fed on a standard mouse diet with water, for about a week.
General anesthesia was induced using intraperitoneal 3% chloral hydrate (1 mL/10 g of body weight). The hair on the back was shaved by a baby hair shaver and depilated with cream. The skin area was wiped and sterilized with 75% alcohol twice.
An EMS skin biopsy punch (Electron Microscopy Sciences, P.O. Box 550, 1560 Industry Road, Hatfield, PA, USA) with a 18 mm diameter was used to make a round wound on the back. The full thickness of skin was removed and the depth of the wound reached the fascia. Wounds were left open without a suture.
(§1) The model group was given same amount of normal saline. There were 8 mice in each group.
Recombinant Human Epidermal Growth Factor (rhEGF, Shanghai Haohai Biological Technology Co. Ltd, 23/F, Shanghai, China) was purchased and prepared according to the manufacturer's instructions. The lyophilized rhEGF powder (100000 IU/vial) was dissolved in 20 mL of normal saline to make a solution with a concentration of 5000 IU/mL. The working dose of rhEGF for this experiment was 1285 IU/wound.
For this experiment, Compound A was also obtained from GL Biochem (Shanghai) Ltd. The peptide powders were stored at −20° C. and dissolved in saline at concentrations of 61.8 μg/mL (Compound A), and 61 μg/mL (Compound B). 50 μL of the solutions were applied onto the wound surfaces.
Wounds were dressed with gauze and transparent dresser after drug administration. Photographs were taken for each wound every other day from Day 0. Photos were scanned into a computer, and wound areas calculated using ImageJ image analysis software (National Institutes of Health, […]).
The unhealed wound area was expressed as a percentage of the original wound area: […]
where A0 and At refer to the initial area at Day 0 and the wound area at the date of measurement (time t), respectively.

[2] = system: Hyp, VEGF and TGF-β1 in wound tissue; assay: Acute wound model, ELISA of wound tissue; format: in vivo, C57BL/6 mice; conditions: for wound Hyp content (Mean): indicator of collagen regeneration; for TGF-β1 content (Mean): wound tissue
Description: as §1
Samples were taken at Day 4 and Day 7 post-wound infliction. The mice were sacrificed and the wound tissue taken by the same biopsy punch used to create the wound. Then 5 mm of tissue was cut off from the center of the sample and was preserved in 10% neutral buffered formalin (Nanchang Rain Dew Experimental Equipment Co., Ltd., Nanchang, Hubei Province, China), and analyzed by histological embedding (HE) in paraffin wax, sectioning and staining.
The rest of the samples were stored at −80° C. for further analysis. Tissue was cut into small pieces and liquid nitrogen was added to increase brittleness. 9 mL of normal saline was added to 1 g of tissue, which was then ground using a Tissuelyser (Shanghai Jingxin Industrial Development Co., Ltd., Shanghai, China) at 55 Hz for 60 seconds, followed by centrifuging at 8000 rpm for 10 minutes at 4° C.
The supernatant was collected, and the extracted protein was used for ELISA analysis using standard ELISA test kits and an ELISA reader (SH-1000 Hitachi, Japan). Vascular endothelial growth factor (VEGF), transforming growth factor beta 1 (TGF-β1) and hydroxyproline (Hyp) were assayed. The ELISA kits were purchased from Beijing 4A Biotech Co., Ltd. (Beijing, China).

B1: rhEGF: Recombinant Human Epidermal Growth Factor, lyophilized powder dissolved in normal saline (protein, UniProt P01133 23-1207, looked up)
Pro-epidermal growth factor: PQHWSCPEGTLAGNGNSTCVGPAPFLIFSHGNSIFRIDTEGTNYEQLVVDAGVSVIMDFHYNEKRIYWVDLERQLLQRVFLNGSRQERVCNIEKNVSGMAINWINEEVIWSNQQEGIITVTDMKGNNSHILLSALKYPANVAVDPVERFIFWSSEVAGSLYRADLDGVGVKALLETSEKITAVSLDVLDKRLFWIQYNREGSNSLICSCDYDGGSVHISKHPTQHNLFAMSLFGDRIFYSTWKMKTIWIANKHTGKDMVRINLHSSFVPLGELKVVHPLAQPKAEDDTWEPEQKLCKLRKGNCSSTVCGQDLQSHLCMCAEGYALSRDRKYCEDVNECAFWNHGCTLGCKNTPGSYYCTCPVGFVLLPDGKRCHQLVSCPRNVSECSHDCVLTSEGPLCFCPEGSVLERDGKTCSGCSSPDNGGCSQLCVPLSPVSWECDCFPGYDLQLDEKSCAASGPQPFLLFANSQDIRHMHFDGTDYGTLLSQQMGMVYALDHDPVENKIYFAHTALKWIERANMDGSQRERLIEEGVDVPEGLAVDWIGRRFYWTDRGKSLIGRSDLNGKRSKIITKENISQPRGIAVHPMAKRLFWTDTGINPRIESSSLQGLGRLVIASSDLIWPSGITIDFLTDKLYWCDAKQSVIEMANLDGSKRRRLTQNDVGHPFAVAVFEDYVWFSDWAMPSVMRVNKRTGKDRVRLQGSMLKPSSLVVVHPLAKPGADPCLYQNGGCEHICKKRLGTAWCSCREGFMKASDGKTCLALDGHQLLAGGEVDLKNQVTPLDILSKTRVSEDNITESQHMLVAEIMVSDQDDCAPVGCSMYARCISEGEDATCQCLKGFAGDGKLCSDIDECEMGVPVCPPASSKCINTEGGYVCRCSEGYQGDGIHCLDIDECQLGEHSCGENASCTNTEGGYTCMCAGRLSEPGLICPDSTPPPHLREDDHHYSVRNSDSECPLSHDGYCLHDGVCMYIEALDKYACNCVVGYIGERCQYRDLKWWELRHAGHGQQQKVIVVAVCVVVLVMLLLLSLWGAHYYRTQKLLSKNPKNPYEESSRDVRSRRPADTEDGMSSCPQPWFVVIKEHQDLKNGGQPVAGEDGQAADGSMQPTSWRQEPQLCGMGTEQGCWIPVSSDKGSCPQVMERSFHMPSYGTQTLEGGVEKPHSLLSANPLWQQRALDPPHQMELTQ
modifications: Pro-epidermal growth factor
notes: Recombinant Human Epidermal Growth Factor, lyophilized powder dissolved in normal saline
- ratio of remaining wound area of initial wound ([1]; Day 0, topical 50 μL/wound once daily, rhEGF 1285 IU/mouse, Compound A 3.09 μg/mouse, Compound B 3.05 μg/mouse): 82.0 ± 2.2%
- ratio of remaining wound area of initial wound ([1]; Day 1, topical once daily): 100 ± 9.9%
- ratio of remaining wound area of initial wound ([1]; Day 2, topical once daily): 94.1 ± 4.3%
- ratio of remaining wound area of initial wound ([1]; Day 3, topical once daily): 78.6 ± 7.3%
- ratio of remaining wound area of initial wound ([1]; Day 4, topical once daily): 61.5 ± 3.3%
- ratio of remaining wound area of initial wound ([1]; Day 5, topical once daily): 53.0 ± 1.0%
- ratio of remaining wound area of initial wound ([1]; Day 6, topical once daily): 47.2 ± 5.8%
- wound Hyp content (Mean) ([2]; Day 4): 1.808 µg/mg
- TGF-β1 content (Mean) ([2]; Day 4): 18190.6 pg/g
- wound Hyp content (Mean) ([2]; Day 7): 2.679 µg/mg
- TGF-β1 content (Mean) ([2]; Day 7): 15443.1 pg/g
